Reference: the supplement of paper PMC10724198
± gives the standard deviation of the averaged measurements.

How the values were obtained:
Saccharomyces cerevisiae [1] = test: protein stability index of tFT-peptide fusion (C-terminal peptide) (PSI (0-1 scale)); higher = more stable (slower turnover); conditions: genetic background: wild type; temperature: 30 C
Saccharomyces cerevisiae [2] = test: as above
Procedure: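 MPS profiling in S. cerevisiae of the tFT-X12 degron library: putative degron peptides plus stable controls, 12 aa, fused to the C-terminus of a sfGFP-mCherry timer. Cells are FACS-sorted into 8 mCherry/sfGFP bins and deep-sequenced. PSI runs from 0 (unstable) to 1 (stable). Backgrounds are wild type, das1Δ and doa10Δ at 30 °C, and wild type, das1Δ, cdc34-1 and cdc53-1 at 37 °C; 2-3 technical replicates each.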

[3] = genetic background: cdc34-1, temperature: 37 C
[4] = genetic background: cdc53-1, temperature: 37 C
[5] = genetic background: das1 deletion, temperature: 30 C
[6] = genetic background: das1 deletion, temperature: 37 C
[7] = genetic background: doa10 deletion, temperature: 30 C
[8] = genetic background: wild type, temperature: 30 C
[9] = genetic background: wild type, temperature: 37 C
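Also: PSI is a weighted mean of sequencing reads over stability bins, variants kept only with over 10 reads, mCherry proximal and sfGFP distal, peptide attached via GGGS linker.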

## RLHCFSPILCPI
Saccharomyces cerevisiae [1]
  protein stability index: 0.493 ± 0.012
Saccharomyces cerevisiae [2]; [3]
  protein stability index: 0.6063 ± 0.0042
Saccharomyces cerevisiae [2]; [4]
  protein stability index: 0.576 ± 0.0073
Saccharomyces cerevisiae [2]; [5]
  protein stability index: 0.434 ± 0.029
Saccharomyces cerevisiae [2]; [6]
  protein stability index: 0.59601 ± 0.00033
Saccharomyces cerevisiae [2]; [7]
  protein stability index: 0.402 ± 0.021
Saccharomyces cerevisiae [2]; [8]
  protein stability index: 0.436 ± 0.017
Saccharomyces cerevisiae [2]; [9]
  protein stability index: 0.579 ± 0.036

## RLIARFKILRCI
Saccharomyces cerevisiae [1]
  protein stability index: 0.0979 ± 0.064
Saccharomyces cerevisiae [2]; [3]
  protein stability index: 0.259 ± 0.012
Saccharomyces cerevisiae [2]; [4]
  protein stability index: 0.588 ± 0.011
Saccharomyces cerevisiae [2]; [5]
  protein stability index: 0.559 ± 0.012
Saccharomyces cerevisiae [2]; [6]
  protein stability index: 0.635 ± 0.0085
Saccharomyces cerevisiae [2]; [7]
  protein stability index: 0.0618 ± 0.0034
Saccharomyces cerevisiae [2]; [8]
  protein stability index: 0.0662 ± 0.0038
Saccharomyces cerevisiae [2]; [9]
  protein stability index: 0.0702 ± 0.0014

## RLINCIYVLMLP
Saccharomyces cerevisiae [1]
  protein stability index: 0.398 ± 0.029
Saccharomyces cerevisiae [2]; [3]
  protein stability index: 0.567 ± 0.042
Saccharomyces cerevisiae [2]; [4]
  protein stability index: 0.569 ± 0.0072
Saccharomyces cerevisiae [2]; [5]
  protein stability index: 0.412 ± 0.029
Saccharomyces cerevisiae [2]; [6]
  protein stability index: 0.606 ± 0.0037
Saccharomyces cerevisiae [2]; [7]
  protein stability index: 0.261 ± 0.015
Saccharomyces cerevisiae [2]; [8]
  protein stability index: 0.274 ± 0.033
Saccharomyces cerevisiae [2]; [9]
  protein stability index: 0.513 ± 0.024

## RLLRGDRMVICS
Saccharomyces cerevisiae [1]
  protein stability index: 0.433 ± 0.017
Saccharomyces cerevisiae [2]; [3]
  protein stability index: 0.5515 ± 0.0014
Saccharomyces cerevisiae [2]; [4]
  protein stability index: 0.565 ± 0.057
Saccharomyces cerevisiae [2]; [5]
  protein stability index: 0.395 ± 0.039
Saccharomyces cerevisiae [2]; [6]
  protein stability index: 0.615 ± 0.0066
Saccharomyces cerevisiae [2]; [7]
  protein stability index: 0.3601 ± 0.0008
Saccharomyces cerevisiae [2]; [8]
  protein stability index: 0.375 ± 0.022
Saccharomyces cerevisiae [2]; [9]
  protein stability index: 0.582 ± 0.0066

## RLMLSWLALRRC
Saccharomyces cerevisiae [1]
  protein stability index: 0.476 ± 0.0067
Saccharomyces cerevisiae [2]; [3]
  protein stability index: 0.617 ± 0.058
Saccharomyces cerevisiae [2]; [4]
  protein stability index: 0.665 ± 0.015
Saccharomyces cerevisiae [2]; [5]
  protein stability index: 0.601 ± 0.036
Saccharomyces cerevisiae [2]; [6]
  protein stability index: 0.689 ± 0.02
Saccharomyces cerevisiae [2]; [7]
  protein stability index: 0.351 ± 0.026
Saccharomyces cerevisiae [2]; [8]
  protein stability index: 0.344 ± 0.068
Saccharomyces cerevisiae [2]; [9]
  protein stability index: 0.575 ± 0.0095

## RLPYSLTFFLLC
Saccharomyces cerevisiae [1]
  protein stability index: 0.134 ± 0.009
Saccharomyces cerevisiae [2]; [3]
  protein stability index: 0.414 ± 0.0067
Saccharomyces cerevisiae [2]; [4]
  protein stability index: 0.5789 ± 0.0027
Saccharomyces cerevisiae [2]; [5]
  protein stability index: 0.484 ± 0.038
Saccharomyces cerevisiae [2]; [6]
  protein stability index: 0.576 ± 0.0034
Saccharomyces cerevisiae [2]; [7]
  protein stability index: 0.07289 ± 0.00032
Saccharomyces cerevisiae [2]; [8]
  protein stability index: 0.0628 ± 0.018
Saccharomyces cerevisiae [2]; [9]
  protein stability index: 0.0714 ± 0.0077

## RLVCPFYIACVW
Saccharomyces cerevisiae [1]
  protein stability index: 0.516 ± 0.027
Saccharomyces cerevisiae [2]; [3]
  protein stability index: 0.623 ± 0.012
Saccharomyces cerevisiae [2]; [4]
  protein stability index: 0.649 ± 0.01
Saccharomyces cerevisiae [2]; [5]
  protein stability index: 0.509 ± 0.016
Saccharomyces cerevisiae [2]; [6]
  protein stability index: 0.588 ± 0.014
Saccharomyces cerevisiae [2]; [7]
  protein stability index: 0.468 ± 0.015
Saccharomyces cerevisiae [2]; [8]
  protein stability index: 0.488 ± 0.022
Saccharomyces cerevisiae [2]; [9]
  protein stability index: 0.567 ± 0.031

## RNCSFRRIQLAM
Saccharomyces cerevisiae [1]
  protein stability index: 0.362 ± 0.045
Saccharomyces cerevisiae [2]; [3]
  protein stability index: 0.651 ± 0.063
Saccharomyces cerevisiae [2]; [4]
  protein stability index: 0.699 ± 0.032
Saccharomyces cerevisiae [2]; [5]
  protein stability index: 0.594 ± 0.0073
Saccharomyces cerevisiae [2]; [6]
  protein stability index: 0.715 ± 0.0059
Saccharomyces cerevisiae [2]; [7]
  protein stability index: 0.162 ± 0.0031
Saccharomyces cerevisiae [2]; [8]
  protein stability index: 0.19 ± 0.022
Saccharomyces cerevisiae [2]; [9]
  protein stability index: 0.298 ± 0.0095

## RNKIWCTVIMRL
Saccharomyces cerevisiae [1]
  protein stability index: 0.4002 ± 0.0026
Saccharomyces cerevisiae [2]; [3]
  protein stability index: 0.51 ± 0.042
Saccharomyces cerevisiae [2]; [4]
  protein stability index: 0.537 ± 0.0088
Saccharomyces cerevisiae [2]; [5]
  protein stability index: 0.453 ± 0.036
Saccharomyces cerevisiae [2]; [6]
  protein stability index: 0.597 ± 0.02
Saccharomyces cerevisiae [2]; [7]
  protein stability index: 0.229 ± 0.01
Saccharomyces cerevisiae [2]; [8]
  protein stability index: 0.234 ± 0.046
Saccharomyces cerevisiae [2]; [9]
  protein stability index: 0.396 ± 0.02

## RPAVVPPPFAPL
Saccharomyces cerevisiae [1]
  protein stability index: 0.76 ± 0.041
Saccharomyces cerevisiae [2]; [3]
  protein stability index: 0.652 ± 0.032
Saccharomyces cerevisiae [2]; [4]
  protein stability index: 0.724 ± 0.023
Saccharomyces cerevisiae [2]; [5]
  protein stability index: 0.707 ± 0.0089
Saccharomyces cerevisiae [2]; [6]
  protein stability index: 0.7172 ± 0.0055
Saccharomyces cerevisiae [2]; [7]
  protein stability index: 0.708 ± 0.018
Saccharomyces cerevisiae [2]; [8]
  protein stability index: 0.695 ± 0.01
Saccharomyces cerevisiae [2]; [9]
  protein stability index: 0.6996 ± 0.003

## RQALYFLMICGL
Saccharomyces cerevisiae [1]
  protein stability index: 0.421 ± 0.0045
Saccharomyces cerevisiae [2]; [3]
  protein stability index: 0.508 ± 0.024
Saccharomyces cerevisiae [2]; [4]
  protein stability index: 0.564 ± 0.023
Saccharomyces cerevisiae [2]; [5]
  protein stability index: 0.407 ± 0.039
Saccharomyces cerevisiae [2]; [6]
  protein stability index: 0.545 ± 0.0071
Saccharomyces cerevisiae [2]; [7]
  protein stability index: 0.29391 ± 6e-05
Saccharomyces cerevisiae [2]; [8]
  protein stability index: 0.318 ± 0.019
Saccharomyces cerevisiae [2]; [9]
  protein stability index: 0.459 ± 0.027

## RRIKIRKQEYIS
Saccharomyces cerevisiae [1]
  protein stability index: 0.313 ± 0.029
Saccharomyces cerevisiae [2]; [3]
  protein stability index: 0.572 ± 0.13
Saccharomyces cerevisiae [2]; [4]
  protein stability index: 0.696 ± 0.04
Saccharomyces cerevisiae [2]; [5]
  protein stability index: 0.684 ± 0.029
Saccharomyces cerevisiae [2]; [6]
  protein stability index: 0.719 ± 0.018
Saccharomyces cerevisiae [2]; [7]
  protein stability index: 0.185 ± 0.0051
Saccharomyces cerevisiae [2]; [8]
  protein stability index: 0.217 ± 0.023
Saccharomyces cerevisiae [2]; [9]
  protein stability index: 0.459 ± 0.021

## RRRRHVDHSTQR
Saccharomyces cerevisiae [1]
  protein stability index: 0.4737 ± 0.0036
Saccharomyces cerevisiae [2]; [3]
  protein stability index: 0.495 ± 0.04
Saccharomyces cerevisiae [2]; [4]
  protein stability index: 0.572 ± 0.0085
Saccharomyces cerevisiae [2]; [5]
  protein stability index: 0.542 ± 0.011
Saccharomyces cerevisiae [2]; [6]
  protein stability index: 0.582 ± 0.011
Saccharomyces cerevisiae [2]; [7]
  protein stability index: 0.557 ± 0.038
Saccharomyces cerevisiae [2]; [8]
  protein stability index: 0.554 ± 0.045
Saccharomyces cerevisiae [2]; [9]
  protein stability index: 0.5704 ± 0.0037

## RTWLHLVVPVWG
Saccharomyces cerevisiae [1]
  protein stability index: 0.3367 ± 0.0022
Saccharomyces cerevisiae [2]; [3]
  protein stability index: 0.213 ± 0.026
Saccharomyces cerevisiae [2]; [4]
  protein stability index: 0.265 ± 0.044
Saccharomyces cerevisiae [2]; [5]
  protein stability index: 0.222 ± 0.034
Saccharomyces cerevisiae [2]; [6]
  protein stability index: 0.3778 ± 0.0024
Saccharomyces cerevisiae [2]; [7]
  protein stability index: 0.19 ± 0.0051
Saccharomyces cerevisiae [2]; [8]
  protein stability index: 0.228 ± 0.037
Saccharomyces cerevisiae [2]; [9]
  protein stability index: 0.318 ± 0.014

## RVGWVVVLGCVG
Saccharomyces cerevisiae [1]
  protein stability index: 0.479 ± 0.0089
Saccharomyces cerevisiae [2]; [3]
  protein stability index: 0.545 ± 0.04
Saccharomyces cerevisiae [2]; [4]
  protein stability index: 0.548 ± 0.014
Saccharomyces cerevisiae [2]; [5]
  protein stability index: 0.401 ± 0.027
Saccharomyces cerevisiae [2]; [6]
  protein stability index: 0.578 ± 0.012
Saccharomyces cerevisiae [2]; [7]
  protein stability index: 0.366 ± 0.009
Saccharomyces cerevisiae [2]; [8]
  protein stability index: 0.397 ± 0.015
Saccharomyces cerevisiae [2]; [9]
  protein stability index: 0.55 ± 0.014

## RVHFLIVFLCRF
Saccharomyces cerevisiae [1]
  protein stability index: 0.399 ± 0.051
Saccharomyces cerevisiae [2]; [3]
  protein stability index: 0.441 ± 0.012
Saccharomyces cerevisiae [2]; [4]
  protein stability index: 0.4927 ± 0.0037
Saccharomyces cerevisiae [2]; [5]
  protein stability index: 0.369 ± 0.011
Saccharomyces cerevisiae [2]; [6]
  protein stability index: 0.526 ± 0.012
Saccharomyces cerevisiae [2]; [7]
  protein stability index: 0.398 ± 0.024
Saccharomyces cerevisiae [2]; [8]
  protein stability index: 0.361 ± 0.014
Saccharomyces cerevisiae [2]; [9]
  protein stability index: 0.472 ± 0.021

## RVSIIYLGVLIS
Saccharomyces cerevisiae [1]
  protein stability index: 0.112 ± 0.025
Saccharomyces cerevisiae [2]; [3]
  protein stability index: 0.174 ± 0.012
Saccharomyces cerevisiae [2]; [4]
  protein stability index: 0.297 ± 0.025
Saccharomyces cerevisiae [2]; [5]
  protein stability index: 0.26 ± 0.024
Saccharomyces cerevisiae [2]; [6]
  protein stability index: 0.436 ± 0.0092
Saccharomyces cerevisiae [2]; [7]
  protein stability index: 0.0604 ± 0.011
Saccharomyces cerevisiae [2]; [8]
  protein stability index: 0.073 ± 0.013
Saccharomyces cerevisiae [2]; [9]
  protein stability index: 0.0592 ± 0.036

## RVTYWKAVLVRL
Saccharomyces cerevisiae [1]
  protein stability index: 0.212 ± 0.016
Saccharomyces cerevisiae [2]; [3]
  protein stability index: 0.47 ± 0.07
Saccharomyces cerevisiae [2]; [4]
  protein stability index: 0.461 ± 0.022
Saccharomyces cerevisiae [2]; [5]
  protein stability index: 0.44 ± 0.031
Saccharomyces cerevisiae [2]; [6]
  protein stability index: 0.6 ± 0.017
Saccharomyces cerevisiae [2]; [7]
  protein stability index: 0.108 ± 0.025
Saccharomyces cerevisiae [2]; [8]
  protein stability index: 0.109 ± 0.025
Saccharomyces cerevisiae [2]; [9]
  protein stability index: 0.13 ± 0.0084

## RYCVVDISAFCD
Saccharomyces cerevisiae [1]
  protein stability index: 0.465 ± 0.0094
Saccharomyces cerevisiae [2]; [3]
  protein stability index: 0.489 ± 0.017
Saccharomyces cerevisiae [2]; [4]
  protein stability index: 0.576 ± 0.021
Saccharomyces cerevisiae [2]; [5]
  protein stability index: 0.368 ± 0.029
Saccharomyces cerevisiae [2]; [6]
  protein stability index: 0.5947 ± 0.0057
Saccharomyces cerevisiae [2]; [7]
  protein stability index: 0.37 ± 0.017
Saccharomyces cerevisiae [2]; [8]
  protein stability index: 0.388 ± 0.026
Saccharomyces cerevisiae [2]; [9]
  protein stability index: 0.573 ± 0.024

## RYLCLTPALYLS
Saccharomyces cerevisiae [1]
  protein stability index: 0.151 ± 0.11
Saccharomyces cerevisiae [2]; [3]
  protein stability index: 0.45 ± 0.014
Saccharomyces cerevisiae [2]; [4]
  protein stability index: 0.5588 ± 0.0053
Saccharomyces cerevisiae [2]; [5]
  protein stability index: 0.509 ± 0.027
Saccharomyces cerevisiae [2]; [6]
  protein stability index: 0.621 ± 0.0072
Saccharomyces cerevisiae [2]; [7]
  protein stability index: 0.125 ± 0.017
Saccharomyces cerevisiae [2]; [8]
  protein stability index: 0.113 ± 0.012
Saccharomyces cerevisiae [2]; [9]
  protein stability index: 0.157 ± 0.016
